One experiment addresses T1, Rev1 (S. cerevisiae, UniProt P12689 1-985).
T1 construct: Rev1, translesion synthesis DNA polymerase, S. cerevisiae; also called TLS polymerase Rev1; purified Rev1; source: S. cerevisiae BJ5464, overexpressed, purified on glutathione–Sepharose 4B beads, eluted by PreScission protease cleavage; not shown: GST, N-terminal, cleaved
T1 sequence (looked up): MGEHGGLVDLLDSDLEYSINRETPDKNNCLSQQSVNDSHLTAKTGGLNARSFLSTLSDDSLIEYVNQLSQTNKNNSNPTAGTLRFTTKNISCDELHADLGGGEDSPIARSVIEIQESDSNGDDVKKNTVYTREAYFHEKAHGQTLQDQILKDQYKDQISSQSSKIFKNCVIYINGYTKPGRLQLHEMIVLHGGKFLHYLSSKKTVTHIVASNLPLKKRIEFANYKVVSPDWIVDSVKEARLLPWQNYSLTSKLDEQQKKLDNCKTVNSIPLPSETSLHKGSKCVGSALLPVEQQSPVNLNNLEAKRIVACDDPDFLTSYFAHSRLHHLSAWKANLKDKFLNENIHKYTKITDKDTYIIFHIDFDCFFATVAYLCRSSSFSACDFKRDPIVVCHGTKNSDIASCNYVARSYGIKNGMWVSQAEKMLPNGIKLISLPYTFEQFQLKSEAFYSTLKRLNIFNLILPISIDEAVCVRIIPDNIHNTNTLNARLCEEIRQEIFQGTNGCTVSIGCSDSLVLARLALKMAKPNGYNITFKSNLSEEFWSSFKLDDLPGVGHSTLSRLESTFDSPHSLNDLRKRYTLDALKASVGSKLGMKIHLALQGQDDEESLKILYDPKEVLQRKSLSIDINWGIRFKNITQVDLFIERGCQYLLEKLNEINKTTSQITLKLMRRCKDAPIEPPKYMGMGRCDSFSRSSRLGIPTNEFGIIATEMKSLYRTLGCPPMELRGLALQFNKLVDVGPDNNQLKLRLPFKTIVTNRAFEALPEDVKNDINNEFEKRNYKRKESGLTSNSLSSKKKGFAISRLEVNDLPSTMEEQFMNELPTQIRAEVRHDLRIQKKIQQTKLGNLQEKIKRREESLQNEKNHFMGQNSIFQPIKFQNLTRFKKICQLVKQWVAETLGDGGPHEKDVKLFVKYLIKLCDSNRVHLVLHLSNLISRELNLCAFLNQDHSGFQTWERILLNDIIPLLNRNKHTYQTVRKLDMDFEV
Description: pull-down; GST–Pol32 (3 µg) or GST immobilised on glutathione–Sepharose beads, incubated with purified Pol31 (5 µg) and Rev1 (3 µg) together, overnight on ice; 50 mM Tris/HCl pH 7.5, 150 mM NaCl, 1 mM EDTA, 1 mM DTT, 10% glycerol, 0.01% Nonidet P-40; five washes, elution with 20 mM glutathione, SDS-PAGE. As to conditions: both partners purified.

The target in the next experiment is T2, Pol31 (S. cerevisiae, UniProt P46957 1-487).
T2 construct: Pol31, noncatalytic subunit of DNA polymerase delta, S. cerevisiae; also called purified Pol31; source: S. cerevisiae BJ5464, overexpressed, purified on glutathione–Sepharose 4B beads, eluted by PreScission protease cleavage; not shown: GST, N-terminal, cleaved
T2 sequence (looked up): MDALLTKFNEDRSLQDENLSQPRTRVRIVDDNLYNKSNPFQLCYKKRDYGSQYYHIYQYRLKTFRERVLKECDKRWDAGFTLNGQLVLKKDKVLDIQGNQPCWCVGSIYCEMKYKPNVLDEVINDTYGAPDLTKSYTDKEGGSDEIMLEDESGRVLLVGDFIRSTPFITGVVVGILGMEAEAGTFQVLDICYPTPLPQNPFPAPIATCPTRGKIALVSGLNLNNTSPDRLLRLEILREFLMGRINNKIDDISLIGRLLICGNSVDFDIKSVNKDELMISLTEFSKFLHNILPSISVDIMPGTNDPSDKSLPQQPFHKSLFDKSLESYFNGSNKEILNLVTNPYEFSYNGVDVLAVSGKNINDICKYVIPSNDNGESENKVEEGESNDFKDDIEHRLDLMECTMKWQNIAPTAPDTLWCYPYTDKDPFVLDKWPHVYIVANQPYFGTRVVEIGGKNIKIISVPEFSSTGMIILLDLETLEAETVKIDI
The experiment is described as above. As to conditions: both partners purified.

B1: GST–Pol32 (natural protein, S. cerevisiae, UniProt P47110 1-350, looked up)
chain: MDQKASYFINEKLFTEVKPVLFTDLIHHLKIGPSMAKKLMFDYYKQTTNAKYNCVVICCYKDQTIKIIHDLSNIPQQDSIIDCFIYAFNPMDSFIPYYDIIDQKDCLTIKNSYELKVSESSKIIERTKTLEEKSKPLVRPTARSKTTPEETTGRKSKSKDMGLRSTALLAKMKKDRDDKETSRQNELRKRKEENLQKINKQNPEREAQMKELNNLFVEDDLDTEEVNGGSKPNSPKETDSNDKDKNNDDLEDLLETTAEDSLMDVPKIQQTKPSETEHSKEPKSEEEPSSFIDEDGYIVTKRPATSTPPRKPSPVVKRALSSSKKQETPSSNKRLKKQGTLESFFKRKAK
notes: Pol32, noncatalytic subunit of DNA polymerase delta, S. cerevisiae; source: S. cerevisiae BJ5464, overexpressed, purified on glutathione–Sepharose 4B beads; not shown: GST, N-terminal, kept
On to B1, for which the binding result in the experiment with Rev1 and with Pol31 was “binds” throughout.
